The record followed here is PMC4888843.

pIC50: −log10 of the molar value.

Test [1] concerns the target human BAXΔC21 (human) (UniProt Q07812). The experiment in a line: SEC.
Test [2] deals with human MCL-1ΔN170ΔC23 (human) (UniProt Q07820). Briefly: ELISA.
In test [3] the target is mouse Bcl-2ΔC22 (mouse) (UniProt P10417). The experiment in a line: SPR.

In test [1], “human BAXΔC21 (from UniProt Q07812 1-171) (domain or fragment)” displayed a stoichiometry N of 2.
In the case of “phage-displayed human BAK BH3 peptide G82E (from UniProt Q16611 67-92)”, the pIC50 in test [2] was < 5.00.
For mBak Q75L BH3 synthetic peptide, in test [3], the fold weaker affinity than wild-type mBak BH3 was 2.5 fold.
